# Measured values as given in PMC8445900.
# Assays:
# Assay in all cases: ITC
# [1] = molecular target: SARS-CoV-2 spike protein receptor-binding domain Y453F (SARS-CoV-2) (UniProt P0DTC2)
# [2] = molecular target: SARS-CoV-2 spike protein receptor-binding domain K417N (SARS-CoV-2) (UniProt P0DTC2)
# [3] = molecular target: SARS-CoV-2 spike protein receptor-binding domain S494P (SARS-CoV-2) (UniProt P0DTC2)
# [4] = molecular target: SARS-CoV-2 spike protein receptor-binding domain T478I (SARS-CoV-2) (UniProt P0DTC2)
# [5] = molecular target: SARS-CoV-2 spike protein receptor-binding domain S477N (SARS-CoV-2) (UniProt P0DTC2)
substance,measurement,setting,value
CC12.1 single-chain fragment variable (scFv),Kd,[1],827 nM
same,dH,[1],-2.2 kcal/mol
same,Kd,[2],119 nM
same,dH,[2],-1.8 kcal/mol
same,Kd,[3],23 nM
same,dH,[3],-6.4 kcal/mol
same,Kd,[4],5.8 nM
same,dH,[4],-5.6 kcal/mol
same,Kd,[5],25.6 nM
same,dH,[5],-5.7 kcal/mol
